pKd: −log10 of the molar value.
Molecular target: Dnmt3a (Homo sapiens) (UniProt Q9Y6K1)
Experiment: not given
Conditions: cited from earlier work

Row | Substance | pKd
1 | MPP8 chromodomain (from UniProt Q99549) | 4.92

Molecular target: MPP8 chromodomain (CD, residues 55-116) (human) (UniProt Q99549)
Experiment: ITC; 750 uM peptide in the syringe titrated into 50 uM MPP8 CD in the cell; 50 mM HEPES pH 7.4, 0.1 M NaCl, 0.5 mM TCEP, 25 °C; single-site model
Conditions: not given

Row | pKd | Substance
2 | 5.88 | G9a peptide trimethylated at K185
3 | 6.47 | GLP peptide residues 199-211 with lysine 205 trimethylated (from UniProt Q9H9B1 199-211)
4 | 6.71 | ATF7IP N-terminal tail peptide trimethylated at lysine 16
5 | 5.81 | SETDB1 peptide trimethylated at K1170
6 | < 4.30 | SETDB1 peptide trimethylated at K1178
7 | < 4.30 | Histone H3 peptide trimethylated at lysine 27
8 | 6.11 | Histone H3 peptide trimethylated at lysine 9

— PMC7618375, “Structure and Methyl-lysine Binding Selectivity of the HUSH Complex Subunit MPP8” (Journal of molecular biology, 2024)
